Patent publication US20240209100A1 (DIAGONAL THERAPEUTICS, published 2024)

T1: IL-18 receptor (IL-18Rα/IL-18Rβ) overexpressed on HEK-Blue IL-18 cells (Homo sapiens (Human), UniProt Q13478 19-541; O95256 20-599)
T1 sequence 1: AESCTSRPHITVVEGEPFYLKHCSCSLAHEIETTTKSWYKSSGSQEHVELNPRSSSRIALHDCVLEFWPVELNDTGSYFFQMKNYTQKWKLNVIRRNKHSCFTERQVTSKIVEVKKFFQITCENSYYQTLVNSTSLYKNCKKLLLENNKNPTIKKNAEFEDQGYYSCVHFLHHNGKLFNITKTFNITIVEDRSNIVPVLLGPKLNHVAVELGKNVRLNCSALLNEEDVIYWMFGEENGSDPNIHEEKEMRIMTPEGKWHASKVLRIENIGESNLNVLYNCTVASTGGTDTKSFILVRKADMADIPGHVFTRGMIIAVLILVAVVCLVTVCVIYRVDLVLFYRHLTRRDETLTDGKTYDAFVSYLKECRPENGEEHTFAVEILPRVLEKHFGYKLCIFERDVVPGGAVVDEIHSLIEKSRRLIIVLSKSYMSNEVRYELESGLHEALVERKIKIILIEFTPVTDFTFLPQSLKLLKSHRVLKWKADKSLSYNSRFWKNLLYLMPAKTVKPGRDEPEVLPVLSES
T1 sequence 2: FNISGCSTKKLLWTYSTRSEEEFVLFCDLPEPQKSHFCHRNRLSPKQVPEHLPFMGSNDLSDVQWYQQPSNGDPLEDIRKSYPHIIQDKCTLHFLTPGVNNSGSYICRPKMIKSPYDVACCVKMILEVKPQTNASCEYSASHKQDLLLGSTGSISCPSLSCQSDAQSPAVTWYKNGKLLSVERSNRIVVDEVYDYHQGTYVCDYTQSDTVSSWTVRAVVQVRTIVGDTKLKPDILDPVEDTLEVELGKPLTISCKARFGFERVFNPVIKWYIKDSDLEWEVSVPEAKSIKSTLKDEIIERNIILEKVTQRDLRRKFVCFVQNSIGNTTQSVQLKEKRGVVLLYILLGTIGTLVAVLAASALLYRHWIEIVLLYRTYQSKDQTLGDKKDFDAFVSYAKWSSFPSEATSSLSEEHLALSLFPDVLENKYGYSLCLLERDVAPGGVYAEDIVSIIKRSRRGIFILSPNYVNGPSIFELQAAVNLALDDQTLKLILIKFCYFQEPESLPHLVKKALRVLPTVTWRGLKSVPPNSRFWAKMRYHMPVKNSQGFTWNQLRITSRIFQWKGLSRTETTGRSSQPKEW

T2: IL-18 receptor (IL-18Rα/IL-18Rβ) on human PBMCs (human, UniProt Q13478 19-541; O95256 20-599)
T2 sequence 1: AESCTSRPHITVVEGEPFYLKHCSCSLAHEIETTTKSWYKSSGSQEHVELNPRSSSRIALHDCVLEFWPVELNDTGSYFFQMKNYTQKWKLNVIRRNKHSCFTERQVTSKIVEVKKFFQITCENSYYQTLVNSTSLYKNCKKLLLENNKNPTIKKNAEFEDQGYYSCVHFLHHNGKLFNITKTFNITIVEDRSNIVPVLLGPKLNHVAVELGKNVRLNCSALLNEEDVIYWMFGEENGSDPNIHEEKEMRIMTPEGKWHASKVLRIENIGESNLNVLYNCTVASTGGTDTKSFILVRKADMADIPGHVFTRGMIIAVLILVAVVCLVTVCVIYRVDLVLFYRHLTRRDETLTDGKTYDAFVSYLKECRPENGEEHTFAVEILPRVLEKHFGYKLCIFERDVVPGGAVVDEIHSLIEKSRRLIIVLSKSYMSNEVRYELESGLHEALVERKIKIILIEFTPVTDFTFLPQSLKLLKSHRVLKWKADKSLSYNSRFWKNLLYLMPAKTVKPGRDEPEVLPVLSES
T2 sequence 2: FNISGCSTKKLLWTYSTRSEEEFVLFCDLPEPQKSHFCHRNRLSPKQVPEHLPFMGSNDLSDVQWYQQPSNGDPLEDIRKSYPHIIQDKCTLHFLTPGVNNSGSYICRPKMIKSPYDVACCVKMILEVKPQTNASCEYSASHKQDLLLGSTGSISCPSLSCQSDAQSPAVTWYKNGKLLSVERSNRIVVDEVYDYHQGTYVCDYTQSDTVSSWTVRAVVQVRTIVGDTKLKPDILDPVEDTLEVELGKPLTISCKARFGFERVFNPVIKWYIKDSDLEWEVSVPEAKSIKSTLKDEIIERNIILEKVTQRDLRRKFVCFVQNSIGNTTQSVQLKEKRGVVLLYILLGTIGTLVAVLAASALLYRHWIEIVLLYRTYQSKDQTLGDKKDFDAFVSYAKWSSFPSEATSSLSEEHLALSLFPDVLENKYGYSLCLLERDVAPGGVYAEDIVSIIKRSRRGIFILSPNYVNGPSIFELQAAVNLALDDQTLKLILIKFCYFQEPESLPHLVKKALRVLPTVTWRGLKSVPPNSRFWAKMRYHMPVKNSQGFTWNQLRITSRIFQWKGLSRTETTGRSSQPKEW

T3: human IL-18Rα (human, UniProt Q13478 19-329, limits assumed)
T3 construct: Monomeric antigen injected in SPR; also called huIL18Ra; IL-18R alpha
T3 sequence: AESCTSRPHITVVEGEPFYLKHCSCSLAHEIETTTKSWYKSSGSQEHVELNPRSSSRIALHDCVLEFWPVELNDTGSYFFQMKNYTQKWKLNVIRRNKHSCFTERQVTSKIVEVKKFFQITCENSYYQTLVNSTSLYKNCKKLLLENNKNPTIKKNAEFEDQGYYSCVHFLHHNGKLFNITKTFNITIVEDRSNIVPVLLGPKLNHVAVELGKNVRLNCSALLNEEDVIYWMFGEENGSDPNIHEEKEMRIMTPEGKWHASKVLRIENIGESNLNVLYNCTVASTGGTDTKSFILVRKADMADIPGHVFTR

T4: human IL-18Rβ (human, UniProt O95256 20-356, limits assumed)
T4 construct: Monomeric antigen injected in SPR; also called IL-18R beta; IL-18Rb
T4 sequence: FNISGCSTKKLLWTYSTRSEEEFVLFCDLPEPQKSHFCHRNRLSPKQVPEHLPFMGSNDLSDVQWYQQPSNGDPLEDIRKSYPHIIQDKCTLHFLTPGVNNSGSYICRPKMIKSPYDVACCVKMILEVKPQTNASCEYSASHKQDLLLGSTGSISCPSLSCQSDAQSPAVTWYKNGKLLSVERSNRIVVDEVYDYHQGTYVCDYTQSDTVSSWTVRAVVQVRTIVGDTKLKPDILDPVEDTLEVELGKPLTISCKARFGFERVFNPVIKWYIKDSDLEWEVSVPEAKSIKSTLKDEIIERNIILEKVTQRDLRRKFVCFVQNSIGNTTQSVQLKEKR

T5: cynomolgus IL-18Rα (cynomolgus, UniProt A0A2K5V3J9 19-328)
T5 construct: also called Cyno IL-18Rα; non-human primate IL-18Rα
T5 sequence: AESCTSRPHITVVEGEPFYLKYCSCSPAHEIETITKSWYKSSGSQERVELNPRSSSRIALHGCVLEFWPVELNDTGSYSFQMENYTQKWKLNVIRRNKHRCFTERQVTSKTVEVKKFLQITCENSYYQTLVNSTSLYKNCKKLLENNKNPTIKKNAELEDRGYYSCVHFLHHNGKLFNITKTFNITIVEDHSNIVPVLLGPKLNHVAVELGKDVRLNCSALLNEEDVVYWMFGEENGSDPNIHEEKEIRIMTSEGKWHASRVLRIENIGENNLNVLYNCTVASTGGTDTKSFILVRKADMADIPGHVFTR

T6: rhesus IL-18Rβ (rhesus, UniProt F7HHC1 20-356)
T6 construct: also called non-human primate IL-18Rβ
T6 sequence: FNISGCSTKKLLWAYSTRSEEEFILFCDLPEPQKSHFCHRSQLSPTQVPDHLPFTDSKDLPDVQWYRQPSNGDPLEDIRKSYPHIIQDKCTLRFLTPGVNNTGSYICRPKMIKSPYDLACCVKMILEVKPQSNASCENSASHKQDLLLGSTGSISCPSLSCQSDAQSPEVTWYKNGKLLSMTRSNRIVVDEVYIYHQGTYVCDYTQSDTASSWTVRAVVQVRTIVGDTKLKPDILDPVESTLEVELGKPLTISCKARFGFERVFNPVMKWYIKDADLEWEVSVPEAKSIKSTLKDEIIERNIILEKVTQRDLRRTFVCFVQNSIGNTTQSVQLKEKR


Tests used:
[1] = target: T1, IL-18 receptor (IL-18Rα/IL-18Rβ) …; assay: cell-based or functional assay
[2] = target: T2, IL-18 receptor (IL-18Rα/IL-18Rβ) on …; assay: cell-based or functional assay
[3] = target: T3, human IL-18Rα; assay: SPR (Carterra LSA), antibody captured on anti-human IgG-Fc, monomeric antigen as analyte, 25 C
Description: (§1) SPR experiments were performed using Carterra LSA equipped with an HC30M chip (Carterra-Bio). Binding assays were carried out at 25° C. with HBSTE (10 mM HEPES ph7.4, 150 mM NaCl, 3 mM EDTA, 0.05% Tween-20) with 0.5 g/L BSA. A density of anti-human IgG-Fc capture lawn was established on an HC30M chip using amine coupling. […] Coupling of goat anti-human IgG (H+L) multi-species SP ads-UNLB (Southern Biotech, 2087-01) with standard immobilization was done for 15 minutes in 10 mM sodium acetate pH 4.5 and quenched using 1M ethanolamine HCl PH8.5. The anti-human IgG-Fc capture surface was then used to capture a panel of antibodies at 20 μg/mL. Monomeric antigen for human IL-18Rα, human IL-18Rβ, cynomolgus IL-18Rα, or rhesus IL-18Rβ targeted by the antibodies was injected over the captured antibody array at 6 concentrations in 4-fold dilution series starting at 500 nM. Binding data was referenced and blanked from a buffer injected, then globally fit to a 1:1 Langmuir binding model for estimation of ka, kd, and KD using Carterra Kinetics Software.

[4] = target: T4, human IL-18Rβ; assay: as above
Description: as §1

[5] = target: T5, cynomolgus IL-18Rα; assay: as above
Description: as §1

[6] = target: T6, rhesus IL-18Rβ; assay: as above
Description: as §1

[7] = target: T1, IL-18 receptor (IL-18Rα/IL-18Rβ) …; assay: cell-based or functional assay; remark: listed apart in the source

HEK-Blue IL-18: Abs 405 at 100 nM [1] [Abs] | HEK-Blue IL-18: Fold over Background [1] [fold] | PBMC: calculated maximum induction of IFNγ after 24 hours, donor 1 [2] | PBMC: calculated maximum induction of IFNγ after 24 hours, donor 2 [2] | PBMC: calculated maximum induction of IFNγ after 24 hours, donor 3 [2] | PBMC: calculated maximum induction of IFNγ after 24 hours, donor 4 [2] | PBMC: calculated maximum induction of IFNγ after 24 hours, donor 5 [2] | PBMC: calculated maximum induction of IFNγ after 24 hours, donor 6 [2] | Kd [3] [nM] | Kd [4] [nM] | Kd [5] [nM] | Kd [6] [nM] | EC50 (read off the curve), HEK Blue IL-18 SEAP reporter [7] [nM] | Binder
1.34 | 7.2 | 16000 | 1700 | 22000 | 17000 | 15000 | 3000 | 60 | 2.2 | 900 | 10 |  | DGL346 (bispecific antibody, humanized) heavy 1: EVQLVESGGGLIQPGGSLRLSCAASGSISSRDTMGWYRQAPGKGREMVSVISSSGNTNYADSVLGRFTISRDNAKNTVYLQMNALRAEDTAVYKCYAHRTYGVDYWGQGTLVTVSSGGGSQVQLVESGGGLVQPGGSLRLSCAASGRTFSSYTMGWFRQAPGKGREFVSAISWSAGRTYYADSVKGRFTISRDNAKNTVYLQMNALRAEDTAVYYCAAEEAPDWAPIDCSGYGCLSLYDYWGQGTLVTVSDKTHTCPPCPAPEAAGAPSVFLFPPKPKDTLYITREPEVTCVVVDVSHEDPEVKFNWYVDGVEVHNAKTKPREEQYNSTYRVVSVLTVLHQDWLNGKEYKCKVSNKALPAPIEKTISKAKGQPREPQVCTLPPSRDELTKNQVSLSCAVKGFYPSDIAVEWESNGQPENNYKTTPPVLDSDGSFFLVSKLTVDKSRWQQGNVFSCSVMHEALHNHYTQKSLSLSPG heavy 2: DKTHTCPPCPAPEAAGAPSVFLFPPKPKDTLYITREPEVTCVVVDVSHEDPEVKFNWYVDGVEVHNAKTKPREEQYNSTYRVVSVLTVLHQDWLNGKEYKCKVSNKALPAPIEKTISKAKGQPREPQVYTLPPCRDELTKNQVSLWCLVKGFYPSDIAVEWESNGQPENNYKTTPPVLDSDGSFFLYSKLTVDKSRWQQGNVFSCSVMHEALHNHYTQKSLSLSPG
0.9 | 4.9 | 13000 | 620 | 17000 | 9300 | 1500 | 1300 | 11 | 3.2 | 14 | 15 |  | DGL336 (bispecific antibody, V domains shown, humanized VHH-Fc heterodimer) V domain 1: EVQLLESGGGLVQPGGSLRLSCAASGRTFSKHAMGWFRQAPGKGLEFVSAIDWSGGSTYYADSVKGRFTISRDNSKNTVYLQMNSLRAEDTAVYYCAADSYTDYAQLWLPELESEYDYWGQGTLVTVSS V domain 2: EVQLVESGGGLIQPGGSLRLSCAASGSISSRDTMGWYRQAPGKGREMVSVISSSGNTNYADSVLGRFTISRDNAKNTVYLQMNALRAEDTAVYKCYAHRTYGVDYWGQGTLVTVSS
1.87 | 10.1 | 16000 | 1300 | 22000 | 19000 | 15000 | 2400 | 8 | 14 | 10 |  | ~1 | DGL620 (bispecific antibody) heavy 1: EVQLLESGGGLVQPGGSLRLSCAASGRTFSKHAMGWFRQAPGKGLEFVSAIDWSGGSTYYADSVKGRFTISRDNSKNTVYLQMNSLRAEDTAVYYCAADSYTDYAQLWLPELESEYDYWGQGTLVTVSSCPPCPAPEAAGAPSVFLFPPKPKDTLYITREPEVTCVVVDVSHEDPEVKFNWYVDGVEVHNAKTKPREEQYNSTYRVVSVLTVLHQDWLNGKEYKCKVSNKALPAPIEKTISKAKGQPREPQVCTLPPSRDELTKNQVSLSCAVKGFYPSDIAVEWESNGQPENNYKTTPPVLDSDGSFFLVSKLTVDKSRWQQGNVFSCSVMHEALHNHYTQKSLSLSPG heavy 2: QLQLLESGGGLVQAGGSLRLSCAASRSITFSHNVMGWYRQAPGKGRELVSSIGSGGSTNYVDSVKGRFTISRDNSKKTLYLQMNSLRAEDTAVYYCGVVVGVYRGSLGQGTLVTVSSCPPCPAPEAAGAPSVFLFPPKPKDTLYITREPEVTCVVVDVSHEDPEVKFNWYVDGVEVHNAKTKPREEQYNSTYRVVSVLTVLHQDWLNGKEYKCKVSNKALPAPIEKTISKAKGQPREPQVYTLPPCRDELTKNQVSLWCLVKGFYPSDIAVEWESNGQPENNYKTTPPVLDSDGSFFLYSKLTVDKSRWQQGNVFSCSVMHEALHNHYTQKSLSLSPG
